Article PMC11531469, “Molecular mechanism of parental H3/H4 recycling at a replication fork” (Nature Communications, 2024)

Columns and labels:
Details in all cases: both partners purified
histone H3/H4 tetramer [1] = target: T1, histone H3/H4 tetramer (UniProt P61830 1-136; P02309 1-103); assay: native gel or EMSA; 0.5 uM Cdc45-7HIS mixed with 0-2 uM H3/H4 tetramer, 15 min at 30 °C; 25 mM HEPES-KOH pH 7.5, 1 mM EDTA, 10% glycerol, 0.05% Tween 20, 150 mM KCl; loss of the free Cdc45 band on 5-20% Tris-Glycine gel, Coomassie; apparent
histone H3/H4 tetramer [2] = target: T1, histone H3/H4 tetramer; assay: native gel or EMSA; 0.5 uM Cdc45-7HIS mixed with 0-2 uM H3/H4 tetramer, 15 min at 30 °C; 25 mM HEPES-KOH pH 7.5, 1 mM EDTA, 10% glycerol, 0.05% Tween 20, 300 mM KCl; loss of the free Cdc45 band on 5-20% Tris-Glycine gel, Coomassie; apparent
histone H3/H4 tetramer [3] = target: T1, histone H3/H4 tetramer; assay: native gel or EMSA; 0.5 uM Cdc45-7HIS mixed with 0-2 uM H3/H4 tetramer, 15 min at 30 °C; 25 mM HEPES-KOH pH 7.5, 1 mM EDTA, 10% glycerol, 0.05% Tween 20, 750 mM KCl; loss of the free Cdc45 band on 5-20% Tris-Glycine gel, Coomassie; apparent

B1: Cdc45-7HIS (budding yeast Cdc45, wild type) (natural protein)
chain: ISQFSEAYNKILRNSSSHSSCQLVIFVSCLNIDALCATKMLSLLFKKQLVQSQIVPIFGYSELRRHYSQLDDNINSLLLVGFGGVIDLEAFLEIDPQEYVIDTDEKSGEQSFRRDIYVLDAHRPWNLDNIFGSQIIQCFDDGTVDDTLGEQKEAYYKLLELDEESGDDELSGDENDNNGGDDEATDADEVTDEDEEDEDETISNKRGNSSIGPNDLSKRKQRKKQIHEYEGVLEEYYSQGTTVVNSISAQIYSLLSAIGETNLSNLWLNILGTTSLDIAYAQVYNRLYPLLQDEVKRLTPSSRNSVKTPDTLTLNIQPDYYLFLLRHSSLYDSFYYSNYVNAKLSLWNENGKKRLHKMFARMGIPLSTAQETWLYMDHSIKRELGIIFDKNLDRYGLQDIIRDGFVRTLGYRGSISASEFVEALTALLEVGNSTDKDSVKINNDNNDDTDGEEEEDNSAQKLTNLRKRWVSNFWLSWDALDDRKVELLNRGIQLAQDLQRAIFNTGVAILEKKLIKHLRIYRLCVLQDGPDLDLYRNPLTLLRLGNWLIECCAESEDKQLLPMVLASIDENTDTYLVAGLTPRYPRGLDTIHTKKPILNNFSMAFQQITAETDAKVRIDNFESSIIEIRREDLSPFLEKLTLSGLL
notes: Cdc45, budding yeast; also called WT; source: Escherichia coli, purified
B1 was tested, and the Kd (histone H3/H4 tetramer [1]) was 68 nM, the Kd (histone H3/H4 tetramer [2]) was 90 nM and the Kd (histone H3/H4 tetramer [3]) was 216 nM.
